The labels stand for the following.
B1: Xpress-His G5_(845–1287) [not stated] / G5_(1–1508)-FLAG [not stated] (parent complex)
chain 1: ARSLLPLSTSLDHRSKEELHQDCLVLATAKHSRELNEDVSADVEERFHLGLFTDRATLYRMIDIEGKGHLENGHPELFHQLMLWKGDLKGVLQTAAERGELTDNLVAMAPAAGYHVWLWAVEAFAKQLCFQDQYVKAASHLLSIHKVYEAVELLKSNHFYREAIAIAKARLRPEDPVLKDLYLSWGTVLERDGHYAVAAKCYLGATCAYDAAKVLAKKGDAASLRTAAELAAIVGEDELSASLALRCAQELLLANNWVGAQEALQLHESLQGQRLVFCLLELLSRHLEEKQLSEGKSSSSYHTWNTGTEGPFVERVTAVWKSIFSLDTPEQYQEAFQKLQNIKYPSATNNTPAKQLLLHICHDLTLAVLSQQMASWDEAVQALLRAVVRSYDSGSFTIMQEVYSAFLPDGCDHLRDKLGDHQSPATPAFKSLEAFFLYGRLYE
chain 2: MGQEPRTLPPSPNWYCARCSDAVPGGLFGFAARTSVFLVRVGPGAGESPGTPPFRVIGELVGHTERVSGFTFSHHPGQYNLCATSSDDGTVKIWDVETKTVVTEHALHQHTISTLHWSPRVKDLIVSGDEKGVVFCYWFNRNDSQHLFIEPRTIFCLTCSPHHEDLVAIGYKDGIVVIIDISKKGEVIHRLRGHDDEIHSIAWCPLPGEDCLSINQEETSEEAEITNGNAVAQAPVTKGCYLATGSKDQTIRIWSCSRGRGVMILKLPFLKRRGGGIDPTVKERLWLTLHWPSNQPTQLVSSCFGGELLQWDLTQSWRRKYTLFSASSEGQNHSRIVFNLCPLQTEDDKQLLLSTSMDRDVKCWDIATLECSWTLPSLGGFAYSLAFSSVDIGSLAIGVGDGMIRVWNTLSIKNNYDVKNFWQGVKSKVTALCWHPTKEGCLAFGTDDGKVGLYDTYSNKPPQISSTYHKKTVYTLAWGPPVPPMSLGGEGDRPSLALYSCGGEGIVLQHNPWKLSGEAFDINKLIRDTNSIKYKLPVHTEISWKADGKIMALGNEDGSIEIFQIPNLKLICTIQQHHKLVNTISWHHEHGSQPELSYLMASGSNNAVIYVHNLKTVIESSPESPVTITEPYRTLSGHTAKITSVAWSPHHDGRLVSASYDGTAQVWDALREEPLCNFRGHRGRLLCVAWSPLDPDCIYSGADDFCVHKWLTSMQDHSRPPQGKKSIELEKKRLSQPKAKPKKKKKPTLRTPVKLESIDGNEEESMKENSGPVENGVSDQEGEEQAREPELPCGLAPAVSREPVICTPVSSGFEKSKVTINNKVILLKKEPPKEKPETLIKKRKARSLLPLSTSLDHRSKEELHQDCLVLATAKHSRELNEDVSADVEERFHLGLFTDRATLYRMIDIEGKGHLENGHPELFHQLMLWKGDLKGVLQTAAERGELTDNLVAMAPAAGYHVWLWAVEAFAKQLCFQDQYVKAASHLLSIHKVYEAVELLKSNHFYREAIAIAKARLRPEDPVLKDLYLSWGTVLERDGHYAVAAKCYLGATCAYDAAKVLAKKGDAASLRTAAELAAIVGEDELSASLALRCAQELLLANNWVGAQEALQLHESLQGQRLVFCLLELLSRHLEEKQLSEGKSSSSYHTWNTGTEGPFVERVTAVWKSIFSLDTPEQYQEAFQKLQNIKYPSATNNTPAKQLLLHICHDLTLAVLSQQMASWDEAVQALLRAVVRSYDSGSFTIMQEVYSAFLPDGCDHLRDKLGDHQSPATPAFKSLEAFFLYGRLYEFWWSLSRPCPNSSVWVRAGHRTLSVEPSQQLDTASTEETDPETSQPEPNRPSELDLRLTEEGERMLSTFKELFSEKHASLQNSQRTVAEVQETLAEMIRQHQKSQLCKSTANGPDKNEPEVEAEQPLCSSQSQCKEEKNEPLSLPELTKRLTEANQRMAKFPESIKAWPFPDVLECCLVLLLIRSHFPGCLAQEMQQQAQELLQKYGNTKTYRRHCQTFCM
B2: Xpress-His G5_(845–1508) [not stated] / G5_(1–1508)-FLAG [not stated] (parent complex)
chain 1: ARSLLPLSTSLDHRSKEELHQDCLVLATAKHSRELNEDVSADVEERFHLGLFTDRATLYRMIDIEGKGHLENGHPELFHQLMLWKGDLKGVLQTAAERGELTDNLVAMAPAAGYHVWLWAVEAFAKQLCFQDQYVKAASHLLSIHKVYEAVELLKSNHFYREAIAIAKARLRPEDPVLKDLYLSWGTVLERDGHYAVAAKCYLGATCAYDAAKVLAKKGDAASLRTAAELAAIVGEDELSASLALRCAQELLLANNWVGAQEALQLHESLQGQRLVFCLLELLSRHLEEKQLSEGKSSSSYHTWNTGTEGPFVERVTAVWKSIFSLDTPEQYQEAFQKLQNIKYPSATNNTPAKQLLLHICHDLTLAVLSQQMASWDEAVQALLRAVVRSYDSGSFTIMQEVYSAFLPDGCDHLRDKLGDHQSPATPAFKSLEAFFLYGRLYEFWWSLSRPCPNSSVWVRAGHRTLSVEPSQQLDTASTEETDPETSQPEPNRPSELDLRLTEEGERMLSTFKELFSEKHASLQNSQRTVAEVQETLAEMIRQHQKSQLCKSTANGPDKNEPEVEAEQPLCSSQSQCKEEKNEPLSLPELTKRLTEANQRMAKFPESIKAWPFPDVLECCLVLLLIRSHFPGCLAQEMQQQAQELLQKYGNTKTYRRHCQTFCM
chain 2: B1 chain 2
B3: Xpress-His G5_(1–1287) [not stated] / G5_(1–1508)-FLAG [not stated] (parent complex)
chain 1: MGQEPRTLPPSPNWYCARCSDAVPGGLFGFAARTSVFLVRVGPGAGESPGTPPFRVIGELVGHTERVSGFTFSHHPGQYNLCATSSDDGTVKIWDVETKTVVTEHALHQHTISTLHWSPRVKDLIVSGDEKGVVFCYWFNRNDSQHLFIEPRTIFCLTCSPHHEDLVAIGYKDGIVVIIDISKKGEVIHRLRGHDDEIHSIAWCPLPGEDCLSINQEETSEEAEITNGNAVAQAPVTKGCYLATGSKDQTIRIWSCSRGRGVMILKLPFLKRRGGGIDPTVKERLWLTLHWPSNQPTQLVSSCFGGELLQWDLTQSWRRKYTLFSASSEGQNHSRIVFNLCPLQTEDDKQLLLSTSMDRDVKCWDIATLECSWTLPSLGGFAYSLAFSSVDIGSLAIGVGDGMIRVWNTLSIKNNYDVKNFWQGVKSKVTALCWHPTKEGCLAFGTDDGKVGLYDTYSNKPPQISSTYHKKTVYTLAWGPPVPPMSLGGEGDRPSLALYSCGGEGIVLQHNPWKLSGEAFDINKLIRDTNSIKYKLPVHTEISWKADGKIMALGNEDGSIEIFQIPNLKLICTIQQHHKLVNTISWHHEHGSQPELSYLMASGSNNAVIYVHNLKTVIESSPESPVTITEPYRTLSGHTAKITSVAWSPHHDGRLVSASYDGTAQVWDALREEPLCNFRGHRGRLLCVAWSPLDPDCIYSGADDFCVHKWLTSMQDHSRPPQGKKSIELEKKRLSQPKAKPKKKKKPTLRTPVKLESIDGNEEESMKENSGPVENGVSDQEGEEQAREPELPCGLAPAVSREPVICTPVSSGFEKSKVTINNKVILLKKEPPKEKPETLIKKRKARSLLPLSTSLDHRSKEELHQDCLVLATAKHSRELNEDVSADVEERFHLGLFTDRATLYRMIDIEGKGHLENGHPELFHQLMLWKGDLKGVLQTAAERGELTDNLVAMAPAAGYHVWLWAVEAFAKQLCFQDQYVKAASHLLSIHKVYEAVELLKSNHFYREAIAIAKARLRPEDPVLKDLYLSWGTVLERDGHYAVAAKCYLGATCAYDAAKVLAKKGDAASLRTAAELAAIVGEDELSASLALRCAQELLLANNWVGAQEALQLHESLQGQRLVFCLLELLSRHLEEKQLSEGKSSSSYHTWNTGTEGPFVERVTAVWKSIFSLDTPEQYQEAFQKLQNIKYPSATNNTPAKQLLLHICHDLTLAVLSQQMASWDEAVQALLRAVVRSYDSGSFTIMQEVYSAFLPDGCDHLRDKLGDHQSPATPAFKSLEAFFLYGRLYE
chain 2: B1 chain 2

The variants in the first assay derive from B1. As to the kind of experiment: pull-down; HEK293 cell lysates; western blot with anti-FLAG and anti-Xpress; read off a plot. In general terms: A western blot detects proteins with antibodies after separation by electrophoresis.
For the variant chain 1 ARSLLPLSTSLDHRSKEELHQDCLVLATAKHSRELNEDVSADVEERFHLGLFTDRATLYRMIDIEGKGHLENGHPELFHQLMLWKGDLKGVLQTAAERGELTDNLVEMAPAAGYHVWLWAVEAFAKQLCFQDQYVKAASHLLSIHKVYEAVELLKSNHFYREAIAIAKARLRPEDPVLKDLYLSWGTVLERDGHYAVAAKCYLGATCAYDAAKVLAKKGDAASLRTAAELAAIVGEDELSASLALRCAQELLLANNWVGAQEALQLHESLQGQRLVFCLLELLSRHLEEKQLSEGKSSSSYHTWNTGTEGPFVERVTAVWKSIFSLDTPEQYQEAFQKLQNIKYPSATNNTPAKQLLLHICHDLTLAVLSQQMASWDEAVQALLRAVVRSYDSGSFTIMQEVYSAFLPDGCDHLRDKLGDHQSPATPAFKSLEAFFLYGRLYE [chain 1 A107E], the response was ~0.33 relative intensity (PD/In).

The variants in another assay derive from B2. As to the kind of experiment: pull-down; HEK293 cell lysates; western blot with anti-FLAG and anti-Xpress; n = 3; read off a plot.
In the case of chain 1 A107E, the response was ~0.38 relative intensity (PD/In).

In another assay the parent is B3. The experiment in a line: pull-down; HEK293 cell lysates; western blot with anti-FLAG and anti-Xpress; n = 5; read off a plot.
In the case of chain 1 A951E, the response was ~0.29 relative intensity (PD/In).
